Earlier results as cited in patent US7897835B2, “Expression vectors pSSA-K and pSSA-H for expression of SOD and APX in plants to provide stress tolerance” (Korea Research Institute of Bioscience and Biotechnology, priority 2004, dated 2011).

System: tobacco protoplast
Conditions: transient assay with GUS protein

B1: SWPA2 promoter: oxidative stress inducible peroxidase promoter isolated from sweetpotato (Ipomoea batatas), SEQ. ID. No 15 (nucleic acid)
DNA: AAGCTTCCATGATCAGATCGATAATACCAAATGGTACCACCTAACTAGGTGATATATATTATGTATGTCATTATTTTAAACTGTATTACAAAGACTATTTTTTCATTAATTGGTACAAAGAAAAATTAAACAGAAAAGAAAGGAAAAAATGACTCACCACCTAGCACCTAGACACCTAGACACCAAGTACCCAAACCCTCTATTTTCAACATCTATTTTCAGATGTAAATATGAGTTGGACGAAGAAGGTGTTAGCAATTATTTGATTAATCTTGCTACGATAATTATGATCCACTCACTTAGTCATTTTTTTCAGACCAAGACAACTAGCTTGAGTTTTTTATTGTATGTGGTCGGAACGTTTTTTGTAATTAAAAAAATAAAAGTTGCATCATTATATATGGTAGATTAAGTAATTGATCAATCAACGTTTAATTTTGCATTTATCGGCAAGGTGGAGGTTCCAACTTCCAGTCGAACTTAGAGAGTCATTGGAGACCTTGACCAGTTAACTAGCGGTGTCGAAAACCTGCACAACTTGAGATTTAATTGCATACCTTTTATATATGACGCGTTTTATTTTTTTTTCCTAGAAAATAATTTGGAAGAAAATAAGAATATGTATTCTGTGAAAGCTAGGCCAAAACGAATGTCTTTTCGTCGTTTTCGTTAAAGGTTTAGATCATATTTCATCTGGTCCAACACTCAAACTTGTATAATGGACGAATTATTAGTCATTTTAGACCTACCGGCTAGCGCGACTTTTTTGTTTTCCATAAAGATTCGATAATTGCATGGCCAGATGCAAAGTTTGAAATTTAATGTTTGCCAAATCCTATCATACACCACAACACATGTCTCAGGGCCAAGTGGCACCAGCAAACATTCCTGTCATAATTAATTTTTTTAATGAGAAGGAGGAAACTCACAGCTATTACTCGAAGGTATATAATATTGAGTAAATCTTACTTTGTGATTCTAGTTGACAAAACACCGCAAGATAAACTATACTAAGTTCAAATCACCTCACCGGGTTGGCTCAGATTGGTTTTTTCAATACAAGAGGGGGTGTGAACTCCCGTGCCGACCTCTTTTGAGGGACAATAATGTACGGTCACGCCAACCTAGCTTGATTTTTTCTGACAAATATATTACTACATATATTACACGGTCAAATAATTAATCAAAAAATAAAAAAAGACCCCAATTAAAGTCCCCAACCACTCTCAAATATTCTATTTAAGGGAAACCTTAGAGGCAATTCATGCATCCTCAACCCCTTCTTCTTCATTTTCTTAATCTTACATTTTCCTTTGACCCTCGAG
modifications: Ipomoea batatas
- promoter activity relative to CaMV 35S promoter: at least 30 fold
